Source: PMC8102066, “Differences in interactions between transmembrane domains tune the activation of metabotropic glutamate receptors” (eLife, 2021)

Target: the molecule itself
Assay: single-molecule pulldown (SiMPull) with photobleaching step counting; HEK 293T cells surface-labelled with BG-LD555, lysed in 1.2% IGEPAL, diluted in 0.1% IGEPAL buffer; HA-SNAP constructs captured by biotinylated anti-HA antibody on NeutrAvidin/PEG slides; TIRF; percent dimerization = two-step bleaching min-max normalised (5% background, 55% for full-length mGluR2); in some experiments saturating ligands (TASP, MNI …)

B1: HA-SNAP-mGluR3-C127A (receptor, rat, UniProt P31422 23-879, looked up)
chain: LGDHNFMRREIKIEGDLVLGGLFPINEKGTGTEECGRINEDRGIQRLEAMLFAIDEINKDNYLLPGVKLGVHILDTCSRDTYALEQSLEFVRASLTKVDEAEYMAPDGSYAIQENIPLLIAGVIGGSYSSVSIQVANLLRLFQIPQISYASTSAKLSDKSRYDYFARTVPPDFYQAKAMAEILRFFNWTYVSTVASEGDYGETGIEAFEQEARLRNICIATAEKVGRSNIRKSYDSVIRELLQKPNARVVVLFMRSDDSRELIAAANRVNASFTWVASDGWGAQESIVKGSEHVAYGAITLELASHPVRQFDRYFQSLNPYNNHRNPWFRDFWEQKFQCSLQNKRNHRQVCDKHLAIDSSNYEQESKIMFVVNAVYAMAHALHKMQRTLCPNTTKLCDAMKILDGKKLYKEYLLKINFTAPFNPNKGADSIVKFDTFGDGMGRYNVFNLQQTGGKYSYLKVGHWAETLSLDVDSIHWSRNSVPTSQCSDPCAPNEMKNMQPGDVCCWICIPCEPYEYLVDEFTCMDCGPGQWPTADLSGCYNLPEDYIKWEDAWAIGPVTIACLGFLCTCIVITVFIKHNNTPLVKASGRELCYILLFGVSLSYCMTFFFIAKPSPVICALRRLGLGTSFAICYSALLTKTNCIARIFDGVKNGAQRPKFISPSSQVFICLGLILVQIVMVSVWLILETPGTRRYTLPEKRETVILKCNVKDSSMLISLTYDVVLVILCTVYAFKTRKCPENFNEAKFIGFTMYTTCIIWLAFLPIFYVTSSDYRVQTTTMCISVSLSGFVVLGCLFAPKVHIVLFQPQKNVVTHRLHLNRFSVSGTATTYSQSSASTYVPTVCNGREVLDSTTSSL
modifications: SNAP tag labelled with BG-LD555 (BG-LD655 in two-colour SiMPull)
notes: mGluR3, full-length receptor with the intersubunit disulfide cysteine of the LBD mutated; source: HEK 293T, transfected, in lysate; not shown: HA, N-terminal, kept; SNAP, N-terminal, kept
fold reduction in dimerization against SNAP-mGluR3: 2 fold
